Test system: peptide library, one residue held at a place counted from the S/T acceptor
Experiment: relative phosphorylation of the sub-library (ratio to the mean residue at this position); human; higher = residue favoured
Method in brief: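 Relative sub-library phosphorylation is a ratio to the mean residue at the same position. Purified recombinant kinases were incubated under kinase-specific conditions with biotinylated degenerate peptide sub-libraries, each fixing one residue at one position around a central Ser/Thr, using 50 μM peptide and 50 μM ATP spiked with γ-32P-ATP for 90 min. Spots captured on streptavidin membranes were phosphorimaged and quantified by densitometry.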

Chain of CLK3, construct: Full length (P49761 whole entry, looked up): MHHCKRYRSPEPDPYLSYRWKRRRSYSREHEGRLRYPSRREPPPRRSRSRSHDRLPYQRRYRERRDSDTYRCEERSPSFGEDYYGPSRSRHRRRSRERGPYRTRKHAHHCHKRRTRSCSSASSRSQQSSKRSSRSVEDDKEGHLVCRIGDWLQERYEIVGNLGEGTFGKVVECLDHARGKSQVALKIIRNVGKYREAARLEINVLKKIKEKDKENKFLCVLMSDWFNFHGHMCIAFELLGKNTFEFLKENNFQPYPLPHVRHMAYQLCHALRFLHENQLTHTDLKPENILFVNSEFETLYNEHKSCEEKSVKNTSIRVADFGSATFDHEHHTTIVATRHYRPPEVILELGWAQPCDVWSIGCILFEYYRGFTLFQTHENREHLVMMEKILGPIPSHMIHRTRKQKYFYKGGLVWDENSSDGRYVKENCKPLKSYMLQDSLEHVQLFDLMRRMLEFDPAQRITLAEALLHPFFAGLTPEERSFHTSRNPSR

CLK3, construct: Full length (from UniProt P49761)
relative phosphorylation
Settings	at +1	at +2	at +3	at +4	at -1	at -2	at -3	at -4	at -5
A fixed	0.914	1.22	0.84	1.18	0.969	1.52	0.79	0.812	1.06
D fixed	0.555	1.69	0.683	1.62	0.872	1.26	1.43	1.4	1.87
E fixed	1.27	1.91	0.622	1.34	0.915	1.8	1.19	1.38	1.04
F fixed	0.282	0.536	0.348	0.694	0.306	0.342	0.339	0.516	0.773
G fixed	0.984	0.987	0.917	0.938	1.03	1.35	0.853	1.1	0.928
H fixed	0.735	0.971	1.07	0.869	0.799	0.732	0.607	0.885	0.899
I fixed	0.382	0.381	0.47	0.681	0.203	0.33	0.282	0.417	0.523
K fixed	2.02	1.6	3.25	2.08	2.62	1.33	2.38	1.38	1.53
L fixed	0.478	0.506	0.438	0.748	0.376	0.307	0.31	0.492	0.599
M fixed	0.659	0.574	0.424	0.724	0.405	0.39	0.359	0.613	0.492
N fixed	1.06	1.03	1.1	0.885	1.55	0.853	0.779	0.961	0.846
P fixed	4.92	1.69	1.81	0.963	2.15	1.9	1.76	1.87	0.949
Q fixed	0.983	0.898	0.707	1.01	1.62	0.904	0.852	0.996	0.973
R fixed	0.409	1.35	2.93	1.1	2.1	2.72	3.78	2.05	2.05
V fixed	0.619	0.52	0.457	0.796	0.367	0.432	0.436	0.535	0.735
W fixed	0.368	0.628	0.483	0.732	0.37	0.39	0.457	0.879	1.07
Y fixed	0.368	0.517	0.439	0.649	0.348	0.435	0.403	0.704	0.674
pThr fixed	0.887	2.44	0.951	2.16	0.555	0.817	1.05	1.27	1.12
pTyr fixed	1.23	0.956	0.877	1.3	1.1	0.87	0.997	1.05	0.98

From the supplement of paper PMC9876800
